The values below are quoted from earlier work in article PMC5323041.

Like-named read-outs stand apart in the source and are kept apart here.

Series [1] concerns the target oxytocin (Mus musculus) (UniProt P35454).
The target is the same in series [2]. This is another data set of the same source.

Sequence of UniProt P35454 (P35454 whole entry, looked up): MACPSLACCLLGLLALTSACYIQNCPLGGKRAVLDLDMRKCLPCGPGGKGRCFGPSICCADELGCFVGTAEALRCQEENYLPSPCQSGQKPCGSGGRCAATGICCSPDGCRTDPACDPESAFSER

Turning to “vasopressin V1a receptor (from UniProt Q62463)”, the Kd in series [1] is 25 nM.
For oxytocin receptor (from UniProt P97926), the Kd in series [2] is 1 nM.
